Molecular target: the molecule itself
Assay: single-molecule photobleaching step counting

B1: GFP-TAX-4 (cyclic nucleotide-gated TAX-4 ion channel with EGFP fused to the cytosolic N-terminus) (natural protein, C. elegans, UniProt Q03611 1-733, looked up)
chain: MSTAEPAPDPTNPSTSGLAPTTNGIGSPPPTASAATKFSILTKFLRRKNQVHTTTAQQNEFMQKYMPNGNSNAVQPAATGGQPASSDGGSAIEVPPPKESYAVRIRKYLANYTQDPSTDNFYYWTCVVTVAYIYNLLFVIARQVFNDLIGPSSQSLCRFYNGTLNSTTQVECTYNMLTNMKEMPTYSQYPDLGWSKYWHFRMLWVFFDLLMDCVYLIDTFLNYRMGYMDQGLVVREAEKVTKAYWQSKQYRIDGISLIPLDYILGWPIPYINWRGLPILRLNRLIRYKRVRNCLERTETRSSMPNAFRVVVVVWYIVIIIHWNACLYFWISEWIGLGTDAWVYGHLNKQSLPDDITDTLLRRYVYSFYWSTLILTTIGEVPSPVRNIEYAFVTLDLMCGVLIFATIVGNVGSMISNMSAARTEFQNKMDGIKQYMELRKVSKQLEIRVIKWFDYLWTNKQSLSDQQVLKVLPDKLQAEIAMQVHFETLRKVRIFQDCEAGLLAELVLKLQLQVFSPGDFICKKGDIGREMYIVKRGRLQVVDDDGKKVFVTLQEGSVFGELSILNIAGSKNGNRRTANVRSVGYTDLFVLSKTDLWNALREYPDARKLLLAKGREILKKDNLLDENAPEEQKTVEEIAEHLNNAVKVLQTRMARLIVEHSSTEGKLMKRIEMLEKHLSRYKALARRQKTMHGVSIDGGDISTDGVDERVRPPRLRQTKTIDLPTGTESESLLK
- stoichiometry N: 4

Source: publication doi:10.1101/2021.07.05.451181 (bioRxiv, 2021)
